Results on five molecules are retold here after patent publication US11191823 (CHILDREN S MEDICAL CENTER, dated 2021).

Assay [1] addresses T1, JUNV GP1 (residues 87-235), biotinylated (Junin virus (JUNV), UniProt P26313 87-235). The assay can be described thus: ELISA, plates coated with antigen, IgG titrated. For orientation: In an ELISA, binding on a coated surface is turned into a signal by an enzyme label.
The target of assay [2] is T1, JUNV GP1 (residues 87-235), biotinylated.
Assay [3] shares this target. As to the kind of experiment: ELISA, plates coated with biotinylated antigen, IgG titrated.
The target is the same in assay [4]. The assay can be described thus: SPR, Fab over immobilized JUNV GP1. In general terms: In SPR one partner is held on a chip, and binding of the other changes the refractive index at the surface.

Several values for one entry are separate records, joined by “and”; a condition that tells them apart may be missing. Equal entries are not always repeated.

B1: GD01 IgG (antibody, V domains shown)
VH: EVKLQQSGAELARPGTSVKLSCKASGYTFTNYWMQWIKQRPGQGLEWIGAVYPGDGDTRFSQKFKGKATLTADKSSSTAYMQLSSLSSEDSAVYFCARRRVYYGSNYIYALDYWGQGTSVTVSA
VL: DIVMTQSQKFMSTSIGDRVSITCKASQNVGSAVAWYQQKPGQSPKLLIYSASNRYTGVPDRFIGSESGTDFTLTISNMQSEDLADYFCQQYSSYPLAFGAGTKLELK
Broadly, the EC50 (read off the curve) is the midpoint of the concentration-response curve. Higher therefore signals a less potent agent. Take B1: the “EC50 (read off the curve)” value in assay [1] was approximately 0.1 µg/mL. Also, in assay [2], the “IC50 (read off the curve)” value was ~8 µg/mL and ~7 µg/mL and ~10 µg/mL.

B2: CR1-28 IgG (antibody, V domains shown)
VH: QVQLVESGGGVVQPGRSLRLSCAASGFTFSSSAMHWVRQAPGKGLEWVAVIWSDGSNENYADSVKGRFTISRDNSKNTLYLQMSSLRAEDTAVYYCATDKTYVSGYTSTWYYFNYWGQGTLVTVS
VL: DIQMTQSPSTLSASVGDRVTITCRASQSIDNWLAWYQQKPGKAPKLLIYTASRLESGVPSRFSGSGSGTEFTLTISSLQPDDFATYYCQHRTFGQGTKVEIK
As to B2, the concentration for a half-maximal effect (EC50 (read off the curve)) in assay [3] is approximately 0.1 µg/mL.

B3: CR1-28 Fab (Fab, V domains shown)
VH: QVQLVESGGGVVQPGRSLRLSCAASGFTFSSSAMHWVRQAPGKGLEWVAVIWSDGSNENYADSVKGRFTISRDNSKNTLYLQMSSLRAEDTAVYYCATDKTYVSGYTSTWYYFNYWGQGTLVTVS
VL: DIQMTQSPSTLSASVGDRVTITCRASQSIDNWLAWYQQKPGKAPKLLIYTASRLESGVPSRFSGSGSGTEFTLTISSLQPDDFATYYCQHRTFGQGTKVEIK
As a reminder, the Kd is the free concentration of one partner at which half of the binding sites on the other are occupied at equilibrium, for simple one-to-one binding. With B3, binding in assay [4] was put at a Kd of 5.3 nM.

B4: CR1-07 IgG (antibody, V domains shown)
VH: QVQLVESGGGVVHPGRSLRLSCAASGFTFGTSIMHWVRQAPGKGMQWVAQISHDESRKFYSDSVKGRFTVSRDNSKNTLFLEMSSLRIEDTAVYYCAKDLSPPYSYAWDIFQYWGQGSLVTVS
VL: DIVMTQSPESLAVSLGERATINCKSSQSVLYSSRSDNKDYLAWYQQKPGQSPKLLIYWASTRESGVPERFTGSGSGTDFTLSISSLQAEDVAVYYCQQYYSSPPTFGGGTKVELK
As for B4, in assay [3], the “EC50 (read off the curve)” value is approximately 0.2 µg/mL.

B5: CR1-07 Fab (Fab, V domains shown)
VH: QVQLVESGGGVVHPGRSLRLSCAASGFTFGTSIMHWVRQAPGKGMQWVAQISHDESRKFYSDSVKGRFTVSRDNSKNTLFLEMSSLRIEDTAVYYCAKDLSPPYSYAWDIFQYWGQGSLVTVS
VL: DIVMTQSPESLAVSLGERATINCKSSQSVLYSSRSDNKDYLAWYQQKPGQSPKLLIYWASTRESGVPERFTGSGSGTDFTLSISSLQAEDVAVYYCQQYYSSPPTFGGGTKVELK
As for B5, the Kd in assay [4] worked out at 86.2 nM. This lies in the double-digit nanomolar range.
